From the RNAGym collection of RNA variant scans (doi:10.7554/elife.80360)

B1: Hairpin Ribozyme (parent)
chain: GUCCUCUUUCACGUGCGCGUGAAAGAGAGAAGUGAACCAGAGAAACACACGUUGUGGUAUAUUACCUGGUA

Variants of: B1
Test: self-cleavage, relative activity (ratio to wild type); higher = more cleavage; co-transcriptional
In the case of GUCCUCUUUCACGUGCACGUGAAAGAGAGAAGUGAACCAGAGAAACACACGUGGUGGUAUAUUACCUGGUA, the self-cleavage is reported as 0.932.
GUCCUCUUUCACGUGCACGUGAAAGAGAGAAGUGAACCAGAGAAACACACGUAGUGGUAUAUUACCUGGUA gave a self-cleavage of 1.36.
Work on GUCCUCUUUCACGUGCACGUGAAAGAGAGAAGUGAACCAGAGAAACACACGUCGUGGUAUAUUACCUGGUA yielded a self-cleavage of 1.01.
In the case of GUCCUCUUUCACGUGCACGUGAAAGAGAGAAGUGAACCAGAUAAACACACGUUGUGGUAUAUUACCUGGUA, the self-cleavage is reported as 0.273.
GUCCUCUUUCACGUGCACGUGAAAGAGAGAAGUGAACCAGAAAAACACACGUUGUGGUAUAUUACCUGGUA gave a self-cleavage of 0.222.
In the case of GUCCUCUUUCACGUGCCCGUGAAAGAGAGAAGUGAACCAGAGAAACACACGUUGUGGUAUAUGACCUGGUA, the self-cleavage is reported as 0.125.
In the case of GUCCUCUUUCACGUGCACGUGAAAGAGACAAGUGAACCAGAGAAACACACGUUGUGGUAUAUUACCUGGUA, the self-cleavage is reported as 0.169.
For GUCCUCUUUCACGUGCCCGUGAAAGAGAGAAGUGAACCAGAGAAAAACACGUUGUGGUAUAUUACCUGGUA, the self-cleavage was 0.113.
With GUCCUCUUUCACGUGCCCGUGAAAGAGAGAAGUGAACCAGAGAAAGACACGUUGUGGUAUAUUACCUGGUA the self-cleavage was 0.074.
For GUCCUCUUUCACGUGCCCGUGAAAGAGAGAAGUGAACCAGAGAAACACACGUUGUGGUACAUUACCUGGUA, the self-cleavage was 1.08.
For GUCCUCUUUCACGUGCCCGUGGAAGAGAGAAGUGAACCAGAGAAACACACGUUGUGGUAUAUUACCUGGUA, the self-cleavage was 0.552.
GUCCUCUUUCACGUGCCCGUGAAAGAGAGAAGUGAACCAGAGAAACACACGUUGUGGUAUCUUACCUGGUA gave a self-cleavage of 0.078.
For GUCCUCUUUCACGUGCCCGUGAAAGAGAGAAGUGAACCAGAGAAACACACGUUGUGGUAUGUUACCUGGUA, the self-cleavage was 0.225.
GUCCUCUUUCACGUGCCCGUGAAAGAGAGAAGUGAAACAGAGAAACACACGUUGUGGUAUAUUACCUGGUA gave a self-cleavage of 0.287.
GUCCUCUUUCACGUGCACGUAAAAGAGAGAAGUGAACCAGAGAAACACACGUUGUGGUAUAUUACCUGGUA gave a self-cleavage of 0.792.
With GUCCUCUUUCACGUGCCCGUGAAAGAGAGAAGUGAACCAGAGAAGCACACGUUGUGGUAUAUUACCUGGUA the self-cleavage was 0.112.
GUCCUCUUUCACGUGCCCGUGAAAGAGAGAGGUGAACCAGAGAAACACACGUUGUGGUAUAUUACCUGGUA gave a self-cleavage of 0.425.
For GUCCUCUUUCACGUGCACGUGAAAGAGAGAAGUGAACCAGAGAAACACACGUUGUGGAAUAUUACCUGGUA, the self-cleavage was 0.709.
For GUCCUCUUUCACGUGCCCGUGAAAGAGAGAAGUGAACCAGAGAAACACUCGUUGUGGUAUAUUACCUGGUA, the self-cleavage was 0.263.
Work on GUCCUCUUUCACGUGCCCGUGAAAGAGAGAAGUGAACCAGAGAAACACACGCUGUGGUAUAUUACCUGGUA yielded a self-cleavage of 0.778.
Variant GUCCUCUUUCACGUGCACGUGAAAAAGAGAAGUGAACCAGAGAAACACACGUUGUGGUAUAUUACCUGGUA has a self-cleavage of 0.587.
GUCCUCUUUCACGUGCACGUGAAACAGAGAAGUGAACCAGAGAAACACACGUUGUGGUAUAUUACCUGGUA gave a self-cleavage of 0.552.
Variant GUCCUCUUUCACGUGCACGUGAAAGAGAGAAGUUAACCAGAGAAACACACGUUGUGGUAUAUUACCUGGUA has a self-cleavage of 0.967.
With GUCCUCUUUCACGUGCACGUGAAAGAGAGAAGUAAACCAGAGAAACACACGUUGUGGUAUAUUACCUGGUA the self-cleavage was 1.26.
Work on GUCCUCUUUCACGUGCACGUGAAAGAGAGAAGUCAACCAGAGAAACACACGUUGUGGUAUAUUACCUGGUA yielded a self-cleavage of 1.3.
Work on GUCCUCUUUCACGUGCCCGUGAAAGAGAGAAGUGUACCAGAGAAACACACGUUGUGGUAUAUUACCUGGUA yielded a self-cleavage of 0.44.
For GUCCUCUUUCACGUGCACGUGAAAGAGAGAAGUGAACCAGAGAAACACACGUUGUGGUAUAUAACCUGGUA, the self-cleavage was 0.19.
GUCCUCUUUCACGUGCACGUGAAAGAGAGAAGUGAACCAGAGAAACACACGUUGUGGUAUAUUACCUGGCA showed a self-cleavage of 0.937.
Variant GUCCUCUUUCACGUGCACGUGAAAGAGAGAAGUGAACCAGAGAAACACACGUUGUGGUAUAUUACCUGGAA has a self-cleavage of 0.897.
Variant GUCCUCUUUCACGUGCCCGUGAAAGAGAGAAGUGAACCAGAGAAACACACGUUGUGGUAUAGUACCUGGUA has a self-cleavage of 0.216.
In the case of GUCCUCUUUCACGUGCACGUGAAAGAGAGAAGUGAACCAGAGAAACACACGUUGUGGUAGAUUACCUGGUA, the self-cleavage is reported as 0.581.
For GUCCUCUUUCACGUGCCCGUGAAAGAGAGAAGUGAACCAGAGAAACACACGUGGUGGUAUAUUACCUGGUA, the self-cleavage was 0.41.
GUCCUCUUUCACGUGCACGUGAAAGAGAGAAGUGAACCAUAGAAACACACGUUGUGGUAUAUUACCUGGUA gave a self-cleavage of 0.203.
GUCCUCUUUCACGUGCCCAUGAAAGAGAGAAGUGAACCAGAGAAACACACGUUGUGGUAUAUUACCUGGUA showed a self-cleavage of 0.836.
Work on GUCCUCUUUCACGUGCCCCUGAAAGAGAGAAGUGAACCAGAGAAACACACGUUGUGGUAUAUUACCUGGUA yielded a self-cleavage of 0.68.
For GUCCUCUUUCACGUGCCCGUGAAAGAGAGAAGUGAACCAGAGAAACACACGUUGUAGUAUAUUACCUGGUA, the self-cleavage was 0.0625.
GUCCUCUUUCACGUGCACGUGAAAGAGAGAAGUGAACCAGAGAAACACACGUUGUGGUAUAUUACCUCGUA gave a self-cleavage of 0.232.
Work on GUCCUCUUUCACGUGCACGUGAAAGAGAGAAGUGAACCAGAGAAACACACGUUGUGGUAUAUUACCUAGUA yielded a self-cleavage of 0.301.
GUCCUCUUUCACGUGCCCGUGAAAGAGAGAAGUGAACCAGAGAAACACACGUUGUGGUAUAUUACCUAGUA gave a self-cleavage of 0.196.
GUCCUCUUUCACGUGCCCGUGAAAGAGAGAAGUGAACCAGAGAAACACACUUUGUGGUAUAUUACCUGGUA gave a self-cleavage of 0.679.
For GUCCUCUUUCACGUGCACGUGAAAGAGAGAAGUGAACCAGAGAAACACACGUUGGGGUAUAUUACCUGGUA, the self-cleavage was 0.161.
For GUCCUCUUUCACGUGCCCGAGAAAGAGAGAAGUGAACCAGAGAAACACACGUUGUGGUAUAUUACCUGGUA, the self-cleavage was 0.736.
Work on GUCCUCUUUCACGUGCCCGGGAAAGAGAGAAGUGAACCAGAGAAACACACGUUGUGGUAUAUUACCUGGUA yielded a self-cleavage of 0.904.
In the case of GUCCUCUUUCACGUGCACGUGAAAGAGAGAAGUGAACCAGAGAAACACACGUUGUGGUAUAUUACCGGGUA, the self-cleavage is reported as 0.243.
For GUCCUCUUUCACGUGCACGUGAAAGAGAGAAGUGAACCAGAGAAACACACGUUGUGGUAUAUUACCAGGUA, the self-cleavage was 0.255.
Work on GUCCUCUUUCACGUGCUCGUGCAAGAGAGAAGUGAACCAGAGAAACACACGUUGUGGUAUAUUACCUGGUA yielded a self-cleavage of 0.703.
GUCCUCUUUCACGUGCCCGUGAAAGAGAGAAGUGAACCAUAGAAACACACGUUGUGGUAUAUUACCUGGUA showed a self-cleavage of 0.144.
With GUCCUCUUUCACGUGCACGUGAAAGAGAGAAGUGAACCAGAGAAACACACGUUGUGGUAUAUUACCUGCUA the self-cleavage was 0.249.
For GUCCUCUUUCACGUGCACCUGAAAGAGAGAAGUGAACCAGAGAAACACACGUUGUGGUAUAUUACCUGGUA, the self-cleavage was 0.969.
GUCCUCUUUCACGUGCACGUGAAAGAGAGAAGUGAACCAGAGAAACACACGGUGUGGUAUAUUACCUGGUA showed a self-cleavage of 0.982.
With GUCCUCUUUCACGUGCACGUGAAAGAGAGAAGUGAACCAGAGAAACACACGCUGUGGUAUAUUACCUGGUA the self-cleavage was 1.11.
Work on GUCCUCUUUCACGUGCCCGUGAAAGAGAGAAGUGAACCAGAGAAACACACGUUGGGGUAUAUUACCUGGUA yielded a self-cleavage of 0.196.
GUCCUCUUUCACGUGCCCGUGAAAGAGAGAAGUGAACCAGAGAAACACACGUUGUGGUAUAUUACCCGGUA showed a self-cleavage of 0.197.
GUCCUCUUUCACGUGCACGUGAAAGAAAGAAGUGAACCAGAGAAACACACGUUGUGGUAUAUUACCUGGUA showed a self-cleavage of 0.547.
Work on GUCCUCUUUCACGUGCACGUGAAAGAUAGAAGUGAACCAGAGAAACACACGUUGUGGUAUAUUACCUGGUA yielded a self-cleavage of 0.324.
In the case of GUCCUCUUUCACGUGCCCGUGAAACAGAGAAGUGAACCAGAGAAACACACGUUGUGGUAUAUUACCUGGUA, the self-cleavage is reported as 0.3.
Variant GUCCUCUUUCACGUGCACGUGAAAGAGAGAAGUGAACCAGAGAAACACACAUUGUGGUAUAUUACCUGGUA has a self-cleavage of 1.06.
In the case of GUCCUCUUUCACGUGCCCGUGAAAGAGAGAAGUGAACCAGAGAAACACACGUUGUGGUAUAUUUCCUGGUA, the self-cleavage is reported as 0.176.
GUCCUCUUUCACGUGCCCGUGAAAGAGAGAAGUGAACCAGAGAAACACACGUUGUGGUAUAUUGCCUGGUA gave a self-cleavage of 0.592.
In the case of GUCCUCUUUCACGUGCCCGUGAAAGAGAGAAGUGAACCAGAGAAACACACGUUGUGUUAUAUUACCUGGUA, the self-cleavage is reported as 0.222.
GUCCUCUUUCACGUGCCCGUGAAAGAGAGAAGUGAACCAGAGAAACACACGUUGUGAUAUAUUACCUGGUA showed a self-cleavage of 0.148.
Work on GUCCUCUUUCACGUGCCCGUGAAAGAGAGAAGUGAACCAGAGUAACACACGUUGUGGUAUAUUACCUGGUA yielded a self-cleavage of 0.0572.
In the case of GUCCUCUUUCACGUGCCCGUGAGAGAGAGAAGUGAACCAGAGAAACACACGUUGUGGUAUAUUACCUGGUA, the self-cleavage is reported as 0.458.
With GUCCUCUUUCACGUGCCCGUGAAAGAGAGAAGUGAACCAGAGAAACAUACGUUGUGGUAUAUUACCUGGUA the self-cleavage was 0.148.
For GUCCUCUUUCACGUGCCCGUGAAAGAGAAAAGUGAACCAGAGAAACACACGUUGUGGUAUAUUACCUGGUA, the self-cleavage was 0.12.
GUCCUCUUUCACGUGCCCGUGAAAGAGAGAAGUGAACCAGAAAAACACACGUUGUGGUAUAUUACCUGGUA showed a self-cleavage of 0.176.
With GUCCUCUUUCACGUGCCCGUGAAAGAGAGAAGUGAACCCGAGAAACACACGUUGUGGUAUAUUACCUGGUA the self-cleavage was 0.528.
With GUCCUCUUUCACGUGCCCGUGAAAGAGAGAAGUGAACCUGAGAAACACACGUUGUGGUAUAUUACCUGGUA the self-cleavage was 0.35.
Variant GUCCUCUUUCACGUGCCCGUGAAGGAGAGAAGUGAACCAGAGAAACACACGUUGUGGUAUAUUACCUGGUA has a self-cleavage of 0.88.
GUCCUCUUUCACGUGCCCGUGAAUGAGAGAAGUGAACCAGAGAAACACACGUUGUGGUAUAUUACCUGGUA showed a self-cleavage of 0.73.
Variant GUCCUCUUUCACGUGCCCGUGAAAGAGAGAAGUGAACAAGAGAAACACACGUUGUGGUAUAUUACCUGGUA has a self-cleavage of 0.199.
GUCCUCUUUCACGUGCCCGUGAAAGAGAGAACUGAACCAGAGAAACACACGUUGUGGUAUAUUACCUGGUA showed a self-cleavage of 0.183.
Work on GUCCUCUUUCACGUGCCCGUGAAAGAGAGAAGUGAACCAGAGAAACACACGUUGUGGAAUAUUACCUGGUA yielded a self-cleavage of 0.453.
GUCCUCUUUCACGUGCCCGUGAAAGAGAGAAGUGAACCAGAGAAACACAGGUUGUGGUAUAUUACCUGGUA showed a self-cleavage of 0.132.
With GUCCUCUUUCACGUGCCCGUGAAAGAGAGAAGUGAACCAGAGAAACACACGUUGUGGUAUAUUACCUGUUA the self-cleavage was 0.196.
GUCCUCUUUCACGUGCCCGUGAAAGAGAGAAGUGAACCAGCGAAACACACGUUGUGGUAUAUUACCUGGUA showed a self-cleavage of 0.983.
